Measurements as given in patent US5605671.

Tests used:
[1] = biological target: Interleukin-8 receptor molecules on purified human neutrophils
[2] = biological target: Interleukin-8 receptor molecules on purified human neutrophils; experiment: saturation binding of radioligand to purified human neutrophils, analysis of binding curves
[3] = biological target: Interleukin-8 receptor molecules on purified human neutrophils; experiment: radioligand binding to purified human neutrophils, with and without 1000-fold molar excess of nonlabeled IL-8

I-125-labeled human recombinant interleukin-8 (ligand)
neutrophil chemotaxis in a Boyden chamber [1]: > 95%
Kd [2]: 0.83 nM
estimated maximum binding sites per cell (binding sites per cell) [2]: 60000
specific binding as share of total binding [3]: > 90%
